The labels stand for the following.
B1: 22073 (protein)
chain: MALPVTALLLPLALLLHAARPQLQLQESGPGLVKPSETLSLTCTVSGDSISSGDYYWGWIRQPPGKGLEWIGHIYYSGVTYYNPSLKSRVTISVDTSRNQFSLKLSSVTAADTAVYYCTREDSSNWRSRGQGTLVTVSSLEGQPKANPTVTLFPPSSEELQANKATLVCLISDFYPGAVTVAWKADGSPVKAGVETTKPSKQSNNKYAASSYLSLTPEQWKSHRSYSCQVTHEGSTVEKTVAPTECSGRADCGFTSESYQQGVLSATILYEILLGKATLYAVLVSALVLMAMVKRKDSRGRAKRSGSGATNFSLLKQAGDVEENPGPTSMDWIWRILFLVGAATGAHSFEVQLLESGGGLIQPGGSLRLSCAASGFTFSSHAMTWVRQAPGKGLEWVSAISGSGDYTHYADSVKGRFTISRDNSKNTVYLQMNSLRAEDSAVYYCAKDEDGGSLLGHRGQGTLVTVSSTRIQNPDPAVYQLRDSKSSDKSVCLFTDFDSQTNVSQSKDSDVYITDKCVLDMRSMDFKSNSAVAWSNKSDFACANAFNNSIIPEDTFFPSPESSCDVKLVEKSFETDTNLNFQNLSVIGFRILLLKVAGFNLLMTLRLWSSRAKRSGSGVKQTLNFDLLKLAGDVESNPGPSRGHMTEYKPTVRLATRDDVPRAVRTLAAAFADYPATRHTVDPDRHIERVTELQELFLTRVGLDIGKVWVADDGAAVAVWTTPESVEAGAVFAEIGPRMAELSGSRLAAQQQMEGLLAPHRPKEPAWFLATVGVSPDHQGKGLGSAVVLPGVEAAERAGVPAFLETSAPRNLPFYERLGFTVTADVEVPEGPRTWCMTRKPGA
B2: 22052 (protein)
chain: MALPVTALLLPLALLLHAARPQLQLQESGPGLVKPSETLSLTCTVSGDSISSGDYYWGWIRQPPGKGLEWIGHIYYSGVTYYNPSLKSRVTISVDTSRNQFSLKLSSVTAADTAVYYCTREDSSNWRSRGQGTLVTVSSLEDKTHTCPPCPAEVKTDSTDHVKPKETENTKQPSKSCHKPKAIVHTEKVNMMSLTVLGLRMLFAKTVAVNFLLTAKLFFLRAKRSGSGVKQTLNFDLLKLAGDVESNPGPTSMDWIWRILFLVGAATGAHSFEVQLLESGGGLIQPGGSLRLSCAASGFTFSSHAMTWVRQAPGKGLEWVSAISGSGDYTHYADSVKGRFTISRDNSKNTVYLQMNSLRAEDSAVYYCAKDEDGGSLLGHRGQGTLVTVSSTRDKTHTCPPCPAIPEDTFFPSPESSCDVKLVEKSFETDTNLNFQNLSVIGFRILLLKVAGFNLLMTLRLWSSRAKRSGSGVKQTLNFDLLKLAGDVESNPGPSRGHMTEYKPTVRLATRDDVPRAVRTLAAAFADYPATRHTVDPDRHIERVTELQELFLTRVGLDIGKVWVADDGAAVAVWTTPESVEAGAVFAEIGPRMAELSGSRLAAQQQMEGLLAPHRPKEPAWFLATVGVSPDHQGKGLGSAVVLPGVEAAERAGVPAFLETSAPRNLPFYERLGFTVTADVEVPEGPRTWCMTRKPGA
B3: 22087 (protein)
chain: MALPVTALLLPLALLLHAARPQVQLVESGGGLVQPGGSLRLSCAASGFTFTNHAMSWVRQAPGKGLELVSSISGNGRTTYYADSVKGRFTISRDISKNTLDLQMNSLRAEDTAVYYCAKDGGETLVDSRGQGTLVTVSSLEGSGGGGSGGGGSGEDLKNVFPPEVAVFEPSEAEISHTQKATLVCLATGFYPDHVELSWWVNGKEVHSGVCTDPQPLKEQPALNDSRYCLSSRLRVSATFWQNPRNHFRCQVQFYGLSENDEWTQDRAKPVTQIVSAEAWGRADCGFTSESYQQGVLSATILYEILLGKATLYAVLVSALVLMAMVKRKDSRGRAKRSGSGATNFSLLKQAGDVEENPGPTSMDWIWRILFLVGAATGAHSFEEVQLLESGGGLVQPGGSLRLSCAASGFTFSSYAMSWVRQAPGKGLEWVSSISGSGDYIYYADSVKGRFTISRDISKNTLYLQMNSLRAEDTAVYYCAKEGTGANSSLADYRGQGTLVTVSSTRGSIPEDTFFPSPESSCDVKLVEKSFETDTNLNFQNLSVIGFRILLLKVAGFNLLMTLRLWSS
B4: 22089 (protein)
chain: MALPVTALLLPLALLLHAARPQLQLQESGPGLVKPSETLSLTCTVSGDSISSGDYYWGWIRQPPGKGLEWIGHIYYSGVTYYNPSLKSRVTISVDTSRNQFSLKLSSVTAADTAVYYCTREDSSNWRSRGQGTLVTVSSLEGSGRADCGFTSESYQQGVLSATILYEILLGKATLYAVLVSALVLMAMVKRKDSRGRAKRSGSGATNFSLLKQAGDVEENPGPTSMDWIWRILFLVGAATGAHSFEVQLLESGGGLIQPGGSLRLSCAASGFTFSSHAMTWVRQAPGKGLEWVSAISGSGDYTHYADSVKGRFTISRDNSKNTVYLQMNSLRAEDSAVYYCAKDEDGGSLLGHRGQGTLVTVSSTRIQNPDPAVYQLRDSKSSDKSVCLFTDFDSQTNVSQSKDSDVYITDKCVLDMRSMDFKSNSAVAWSNKSDFACANAFNNSIIPEDTFFPSPESSCDVKLVEKSFETDTNLNFQNLSVIGFRILLLKVAGFNLLMTLRLWSSRAKRSGSGVKQTLNFDLLKLAGDVESNPGPSRGHMTEYKPTVRLATRDDVPRAVRTLAAAFADYPATRHTVDPDRHIERVTELQELFLTRVGLDIGKVWVADDGAAVAVWTTPESVEAGAVFAEIGPRMAELSGSRLAAQQQMEGLLAPHRPKEPAWFLATVGVSPDHQGKGLGSAVVLPGVEAAERAGVPAFLETSAPRNLPFYERLGFTVTADVEVPEGPRTWCMTRKPGA
B5: 22078 (protein)
chain: MALPVTALLLPLALLLHAARPQLQLQESGPGLVKPSETLSLTCTVSGDSISSGDYYWGWIRQPPGKGLEWIGHIYYSGVTYYNPSLKSRVTISVDTSRNQFSLKLSSVTAADTAVYYCTREDSSNWRSRGQGTLVTVSSLESGGGGSFEEVQLLESGGGLVQPGGSLRLSCAASGFTFSSYAMSWVRQAPGKGLEWVSSISGSGDYIYYADSVKGRFTISRDISKNTLYLQMNSLRAEDTAVYYCAKEGTGANSSLADYRGQGTLVTVSSTRASTKGPSVFPLAPSSKSTSGGTAALGCLVKDYFPEPVTVSWNSGALTSGVHTFPAVLQSSGLYSLSSVVTVPSSSLGTQTYICNVNHKPSNTKVDKRVEPKSCEVKTDSTDHVKPKETENTKQPSKSCHKPKAIVHTEKVNMMSLTVLGLRMLFAKTVAVNFLLTAKLFFLRAKRSGSGVKQTLNFDLLKLAGDVESNPGPSRGHMTEYKPTVRLATRDDVPRAVRTLAAAFADYPATRHTVDPDRHIERVTELQELFLTRVGLDIGKVWVADDGAAVAVWTTPESVEAGAVFAEIGPRMAELSGSRLAAQQQMEGLLAPHRPKEPAWFLATVGVSPDHQGKGLGSAVVLPGVEAAERAGVPAFLETSAPRNLPFYERLGFTVTADVEVPEGPRTWCMTRKPGA
B6: 22076 (protein)
chain: MALPVTALLLPLALLLHAARPQLQLQESGPGLVKPSETLSLTCTVSGDSISSGDYYWGWIRQPPGKGLEWIGHIYYSGVTYYNPSLKSRVTISVDTSRNQFSLKLSSVTAADTAVYYCTREDSSNWRSRGQGTLVTVSSLESGGGGSFEQVQLVESGGGLVQPGGSLRLSCAASGFTFTNHAMSWVRQAPGKGLELVSSISGNGRTTYYADSVKGRFTISRDISKNTLDLQMNSLRAEDTAVYYCAKDGGETLVDSRGQGTLVTVSSTRASTKGPSVFPLAPSSKSTSGGTAALGCLVKDYFPEPVTVSWNSGALTSGVHTFPAVLQSSGLYSLSSVVTVPSSSLGTQTYICNVNHKPSNTKVDKRVEPKSCIPEDTFFPSPESSCDVKLVEKSFETDTNLNFQNLSVIGFRILLLKVAGFNLLMTLRLWSSRAKRSGSGVKQTLNFDLLKLAGDVESNPGPSRGHMTEYKPTVRLATRDDVPRAVRTLAAAFADYPATRHTVDPDRHIERVTELQELFLTRVGLDIGKVWVADDGAAVAVWTTPESVEAGAVFAEIGPRMAELSGSRLAAQQQMEGLLAPHRPKEPAWFLATVGVSPDHQGKGLGSAVVLPGVEAAERAGVPAFLETSAPRNLPFYERLGFTVTADVEVPEGPRTWCMTRKPGA

In one assay the test system is L363 cells. Briefly: JNG assay, co-culture with L363 cells. To be noted: co-culture with L363. In kind it is cell-based. In a few lines: (§1)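 Jurkat NFAT-GFP (JNG) cells stably transduced with SARs by lentivirus, with drug selection where the construct carried a resistance gene, then co-cultured with target cells at E:T ~1:2 for ~4–18 h. % GFP-positive cells measured by FACS against parental JNG; +/- to 5+ correspond to ~5–50% GFP-positive.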
Consider B1, for which the “NFAT-GFP ASSAY: L363” value was “+/- (refer to approximately 5%, 10%, 20%, 30%, 40% and 50% GFP positive cells)”.

In the case of B2, the “NFAT-GFP ASSAY: L363” value is “+/- (refer to approximately 5%, 10%, 20%, 30%, 40% and 50% GFP positive cells)”.

For B3, the “NFAT-GFP ASSAY: L363” value is 2+ (refer to approximately 5%, 10%, 20%, 30%, 40% and 50% GFP positive cells).

As for B4, the “NFAT-GFP ASSAY: L363” value is 2+ (refer to approximately 5%, 10%, 20%, 30%, 40% and 50% GFP positive cells).

For the molecule B5, the “NFAT-GFP ASSAY: L363” value was “+/- (refer to approximately 5%, 10%, 20%, 30%, 40% and 50% GFP positive cells)”.

Regarding B6, the “NFAT-GFP ASSAY: L363” value was “+ (refer to approximately 5%, 10%, 20%, 30%, 40% and 50% GFP positive cells)”.

In a further assay the test system is RAJI cells. Briefly: JNG assay, co-culture with RAJI cells. To be noted: JNG cells expressing construct, co-culture with Raji. In kind it is cell-based. In a few lines:
as §1
B1: the “NFAT-GFP ASSAY: Raji” value is “+/- (refer to approximately 5%, 10%, 20%, 30%, 40% and 50% GFP positive cells)”.

B2: the “NFAT-GFP ASSAY: Raji” value was “+/- (refer to approximately 5%, 10%, 20%, 30%, 40% and 50% GFP positive cells)”.

Take B3: the “NFAT-GFP ASSAY: Raji” value was “+ (refer to approximately 5%, 10%, 20%, 30%, 40% and 50% GFP positive cells)”.

Consider B4, for which the “NFAT-GFP ASSAY: Raji” value is “+ (refer to approximately 5%, 10%, 20%, 30%, 40% and 50% GFP positive cells)”.

B5: the “NFAT-GFP ASSAY: Raji” value was “+/- (refer to approximately 5%, 10%, 20%, 30%, 40% and 50% GFP positive cells)”.

Turning to B6, the “NFAT-GFP ASSAY: Raji” value was “+/- (refer to approximately 5%, 10%, 20%, 30%, 40% and 50% GFP positive cells)”.

Values taken from patent publication US20230212319A1, “NOVEL ANTIGEN BINDING DOMAINS AND SYNTHETIC ANTIGEN RECEPTORS INCORPORATING THE SAME” (University of Southern California, priority 2020, published 2023).
